Laboratory results taken from paper doi:10.1101/2023.12.05.570191 (bioRxiv, 2023).

Target: the molecule itself
Assay: FRET or BRET

B1: Cy5-labelled metallated Zur (Zur^Cy5, Cy5 at C113) (natural protein, E. coli)
chain: MEKTTTQELLAQAEKISAQRNVRLTPQRLEVLRLMSLQDGAISAYDLLDLLREAEPQAKPPTVYRALDFLLEQGFVHKVESTNSYVLCHLFDQPTHTSAMFICDRCGAVKEECAEGVEDIMHTLAAKMGFALRHNVIEAHGLCAACVEVEASRHPEQSQHDHSVQVKKKPR
modifications: Cy5 (maleimide chemistry) at C113 of one monomer of the dimer
binding result: binds
